From ChEMBL document CHEMBL1153299, “Carbonic anhydrase activators: activation of the beta-carbonic anhydrase Nce103 from the yeast Saccharomyces cerevisiae with amines and amino acids” (Bioorg Med Chem Lett, 2009)

Substrate: NCCc1c[nH]cn1
Settings: Saccharomyces cerevisiae
Description: Activity at yeast recombinant CA expressed in Escherichia coli

B1: Carbonic anhydrase (Saccharomyces cerevisiae S288c), P53615 (protein)
chain: MSATESSSIFTLSHNSNLQDILAANAKWASQMNNIQPTLFPDHNAKGQSPHTLFIGCSDSRYNENCLGVLPGEVFTWKNVANICHSEDLTLKATLEFAIICLKVNKVIICGHTDCGGIKTCLTNQREALPKVNCSHLYKYLDDIDTMYHEESQNLIHLKTQREKSHYLSHCNVKRQFNRIIENPTVQTAVQNGELQVYGLLYNVEDGLLQTVSTYTKVTPK
  kcat: 19.6 ×10⁵ /s
